Results reported in the supplement of paper PMC10567573.

B1: DVL3 (parent)
chain: FPELGYSYGGGSASSQHSEGSRSS
B2: GLT8D2 (parent)
chain: QEAKLLHWNGRHKPWDFPSVHNDL

Variants of: B1
Assay: protein stability index of a GFP-peptide fusion (GPS, HEK-293T) (PSI 1-6); higher = more stable
Conditions: c terminus: a fixed tail appended
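Also: lentivirally expressed fusions sorted by FACS into six bins by GFP to DsRed ratio, PSI derived from sequencing read proportions per bin multiplied by bin number.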

Protein stability index: each site, then its substitutions
E19: L 2.06; D 3.64; R 2.85; Q 2.66; W 1.81; H 2.38; S 3.16; N 2.59; Y 2.41; K 2.89; G 2.87; M 3.12; C 2.39; F 3.64; P 3.15; V 2.52; A 2.99; I 2.94; T 3.24
G20: Y 2.64; L 2.5; I 2.73; M 2.48; C 2.99; F 2.63; P 2.94; K 3.06; W 2.32; Q 3.27; N 3.43; S 3.18; E 3.52; T 3.42; V 2.75; R 3.15; H 2.9; A 2.52; D 3.7
S21: C 3.3; N 2.91; K 3.17; R 2.62; L 2.61; A 2.94; Y 2.88; V 3.07; G 2.71; M 2.78; W 2.29; H 2.94; D 2.87; F 2.56; Q 3.41; I 2.83; P 3.43; E 3; T 3.24
S18: K 2.98; V 3.36; P 3.24; M 2.76; H 2.95; Q 3.15; D 3.7; A 3.19; I 2.73; E 3.5; G 3.12; Y 2.9; R 2.97; L 2.86; T 3.3; N 2.89; F 2.77; C 2.9; W 2.2
R22: Q 2.92; S 3.66; D 3.42; N 3.56; L 2.53; I 3.43; C 3.41; V 3.18; H 3.24; F 2.79; T 2.6; K 3.15; G 3.53; M 3.4; A 3.41; E 3.71; Y 3.21; W 2.88; P 3.59
H17: T 3.12; K 3.12; I 2.74; M 2.62; P 3.35; V 3.22; N 3.31; R 2.61; Y 2.45; Q 2.83; S 2.8; W 2.77; L 2.77
S24: E 4.02; M 2.97; C 2.99; V 2.34; I 2.37; L 2.94; N 3.56; H 3; R 3.69; F 2.57; Y 2.58; K 3.42; T 2.92; A 3.5; G 3.01; P 3.93; Q 3.01; W 1.95; D 3.24
S23: G 3.26; N 2.91; V 2.63; D 3.17; H 3.33; P 3.23; A 2.97; T 2.46; W 2.59; M 2.33; R 3.05; I 3.34; K 3.05; F 2.39; C 3.38; L 2.49; Q 3.24; Y 2.49; E 2.9

Variants of: B2
Assay: as above
Conditions: c terminus: a fixed tail appended

Protein stability index of substitutions, site by site:
Q1: H 2.35; M 2.35; T 2.49; V 2; D 3.54; Y 1.79; G 2.65; F 1.65; S 2.51; W 2.21; C 1.75; E 3.02; I 1.69; L 2.1; A 2.68; K 2.49; P 2.85; R 2.48; N 2.84
E2: A 1.89; C 1.97
